Assay results taken from US20230405119A1 (CITY OF HOPE, published 2023).

T1: immobilized IL13Rα2 (UniProt Q14627 27-343, limits assumed)
T1 construct: also called IL13Ra2
T1 sequence (looked up): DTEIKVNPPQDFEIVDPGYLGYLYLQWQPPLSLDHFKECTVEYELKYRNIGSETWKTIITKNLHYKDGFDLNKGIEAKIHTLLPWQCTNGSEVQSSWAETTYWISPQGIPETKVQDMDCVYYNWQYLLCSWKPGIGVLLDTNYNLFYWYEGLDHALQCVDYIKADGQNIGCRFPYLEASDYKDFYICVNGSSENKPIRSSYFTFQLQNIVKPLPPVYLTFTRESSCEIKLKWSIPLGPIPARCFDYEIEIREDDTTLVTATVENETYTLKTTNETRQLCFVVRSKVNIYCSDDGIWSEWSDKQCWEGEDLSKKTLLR

T2: immobilized recombinant IL13Rα1 (UniProt P78552 22-343, limits assumed)
T2 construct: also called IL13Ra1
T2 sequence (looked up): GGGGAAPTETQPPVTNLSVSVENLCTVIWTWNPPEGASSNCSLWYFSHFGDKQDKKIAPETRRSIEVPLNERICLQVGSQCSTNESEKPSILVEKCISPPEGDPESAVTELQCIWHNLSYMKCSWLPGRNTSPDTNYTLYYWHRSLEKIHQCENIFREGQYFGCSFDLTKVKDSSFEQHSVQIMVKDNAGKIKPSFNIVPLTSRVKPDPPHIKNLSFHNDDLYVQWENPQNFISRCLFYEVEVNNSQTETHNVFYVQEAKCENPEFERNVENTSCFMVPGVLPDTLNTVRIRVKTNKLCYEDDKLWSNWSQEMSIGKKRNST


Columns and labels:
[1] = molecular target: T1, immobilized IL13Rα2; assay: yeast-displayed IL13; surface plasmon resonance with immobilized recombinant receptor, as the filing words it
From the text: (§1) In an effort to identify IL13 variants with increased selectivity for binding IL13Rα2 relative to IL13Rα1. To assess receptor binding various mutants were compared to wild-type IL13 ([…] […]; SEQ ID NO: 1) and the previously known […] E11Y mutant ([…] […]; SEQ ID NO: 69). […] Surface plasmon resonance with immobilized recombinant IL13Rα1 and immobilized IL13Rα2 was used to assess binding affinity. As expected, WT bound strongly to both IL13Rα1 and IL13Rα2.

[2] = molecular target: T2, immobilized recombinant IL13Rα1; assay: yeast-displayed IL13 variant; surface plasmon resonance with immobilized recombinant receptor, as the filing words it
From the text: as §1

Kd [1] [nM]	binding result [2]	Binder
28	no binding	IL13 variant RLK (E11R: E90L: R107K) (ligand, display scaffold not described) GPVPPSTALRRLIEELVNITQNQKAPLCNGSMVWSINLTAGMYCAALESLINVSGCSAIEKTQRMLSGFCPHKVSAGQFSSLHVRDTKILVAQFVKDLLLHLKKLFKEGRFN
26	no binding	IL13 variant YLK (E11Y: E90L: R107K) (ligand, display scaffold not described) GPVPPSTALRYLIEELVNITQNQKAPLCNGSMVWSINLTAGMYCAALESLINVSGCSAIEKTQRMLSGFCPHKVSAGQFSSLHVRDTKILVAQFVKDLLLHLKKLFKEGRFN
